Source: the supplement of paper PMC10567573

B1: ZNF263 (parent)
chain: RTHTGEKPYKCTLCGENFSHRSNL

Variants of: B1
Assay: protein stability index of a GFP-peptide fusion (GPS, HEK-293T) (PSI 1-6); higher = more stable
Conditions: c terminus: a fixed tail appended
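Further: lentivirally expressed fusions sorted by FACS into six bins by GFP to DsRed ratio, PSI derived from sequencing read proportions per bin multiplied by bin number.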

Variant	protein stability index
RTHTGEKPYYCTLCGENFSHRSNL	1.93
RTHTGEKPYKATLCGENFSHRSNL	2.67
RTHTGEKPYKDTLCGENFSHRSNL	3.87
RTHTGEKPYKETLCGENFSHRSNL	3.97
RTHTGEKPYKFTLCGENFSHRSNL	2.06
RTHTGEKPYKGTLCGENFSHRSNL	3.59
RTHTGEKPYKHTLCGENFSHRSNL	3.13
RTHTGEKPYKITLCGENFSHRSNL	2.56
RTHTGEKPYKKTLCGENFSHRSNL	2.92
RTHTGEKPYKLTLCGENFSHRSNL	2.9
RTHTGEKPYKMTLCGENFSHRSNL	2.78
RTHTGEKPYKNTLCGENFSHRSNL	3.16
RTHTGEKPYKPTLCGENFSHRSNL	3.02
RTHTGEKPYKQTLCGENFSHRSNL	3.24
RTHTGEKPYKRTLCGENFSHRSNL	2.81
RTHTGEKPYKSTLCGENFSHRSNL	3.36
RTHTGEKPYKTTLCGENFSHRSNL	2.91
RTHTGEKPYKVTLCGENFSHRSNL	2.51
RTHTGEKPYKWTLCGENFSHRSNL	2.04
RTHTGEKPYKYTLCGENFSHRSNL	2.42
RTHTGEKPYKCALCGENFSHRSNL	2.07
RTHTGEKPYKCCLCGENFSHRSNL	1.84
RTHTGEKPYKCDLCGENFSHRSNL	2.01
RTHTGEKPYKCELCGENFSHRSNL	1.8

Variant	protein stability index
RTHTGEKPYKCFLCGENFSHRSNL	2.1
RTHTGEKPYKCGLCGENFSHRSNL	1.74
RTHTGEKPYKCHLCGENFSHRSNL	1.68
RTHTGEKPYKCILCGENFSHRSNL	1.92
RTHTGEKPYKCKLCGENFSHRSNL	1.98
RTHTGEKPYKCLLCGENFSHRSNL	2.23
RTHTGEKPYKCMLCGENFSHRSNL	1.43
RTHTGEKPYKCNLCGENFSHRSNL	2.44
RTHTGEKPYKCPLCGENFSHRSNL	2.4
RTHTGEKPYKCQLCGENFSHRSNL	2.04
RTHTGEKPYKCRLCGENFSHRSNL	2.37
RTHTGEKPYKCSLCGENFSHRSNL	1.87
RTHTGEKPYKCVLCGENFSHRSNL	1.65
RTHTGEKPYKCWLCGENFSHRSNL	2.22
RTHTGEKPYKCYLCGENFSHRSNL	1.5
RTHTGEKPYKCTACGENFSHRSNL	2.18
RTHTGEKPYKCTCCGENFSHRSNL	2.81
RTHTGEKPYKCTDCGENFSHRSNL	3.21
RTHTGEKPYKCTECGENFSHRSNL	3.3
RTHTGEKPYKCTFCGENFSHRSNL	2.2
RTHTGEKPYKCTGCGENFSHRSNL	2.42
RTHTGEKPYKCTHCGENFSHRSNL	2.06
RTHTGEKPYKCTICGENFSHRSNL	2.44
RTHTGEKPYKCTKCGENFSHRSNL	2.18

Variant	protein stability index
RTHTGEKPYKCTMCGENFSHRSNL	1.76
RTHTGEKPYKCTNCGENFSHRSNL	3.03
RTHTGEKPYKCTPCGENFSHRSNL	2.31
RTHTGEKPYKCTQCGENFSHRSNL	2.16
RTHTGEKPYKCTRCGENFSHRSNL	1.56
RTHTGEKPYKCTSCGENFSHRSNL	2.64
RTHTGEKPYKCTTCGENFSHRSNL	2.57
RTHTGEKPYKCTVCGENFSHRSNL	2.14
RTHTGEKPYKCTWCGENFSHRSNL	1.88
RTHTGEKPYKCTYCGENFSHRSNL	2.04
RTHTGEKPYKCTLAGENFSHRSNL	3.07
RTHTGEKPYKCTLDGENFSHRSNL	2.96
RTHTGEKPYKCTLEGENFSHRSNL	4.05
RTHTGEKPYKCTLFGENFSHRSNL	2.66
RTHTGEKPYKCTLGGENFSHRSNL	3.13
RTHTGEKPYKCTLHGENFSHRSNL	2.84
RTHTGEKPYKCTLIGENFSHRSNL	2.98
RTHTGEKPYKCTLKGENFSHRSNL	3.48
RTHTGEKPYKCTLLGENFSHRSNL	2.73
RTHTGEKPYKCTLMGENFSHRSNL	3.43
RTHTGEKPYKCTLNGENFSHRSNL	3.19
RTHTGEKPYKCTLPGENFSHRSNL	2.83
RTHTGEKPYKCTLQGENFSHRSNL	3.45
RTHTGEKPYKCTLRGENFSHRSNL	3.17

Variant	protein stability index
RTHTGEKPYKCTLSGENFSHRSNL	3.01
RTHTGEKPYKCTLTGENFSHRSNL	3.37
RTHTGEKPYKCTLVGENFSHRSNL	3.3
RTHTGEKPYKCTLWGENFSHRSNL	2.39
RTHTGEKPYKCTLYGENFSHRSNL	2.52
RTHTGEKPYKCTLCAENFSHRSNL	1.68
RTHTGEKPYKCTLCCENFSHRSNL	1.59
RTHTGEKPYKCTLCDENFSHRSNL	2.1
RTHTGEKPYKCTLCEENFSHRSNL	1.76
RTHTGEKPYKCTLCFENFSHRSNL	2.17
RTHTGEKPYKCTLCHENFSHRSNL	2.23
RTHTGEKPYKCTLCIENFSHRSNL	2.13
RTHTGEKPYKCTLCKENFSHRSNL	2.13
RTHTGEKPYKCTLCLENFSHRSNL	1.97
RTHTGEKPYKCTLCMENFSHRSNL	1.9
RTHTGEKPYKCTLCNENFSHRSNL	1.87
RTHTGEKPYKCTLCPENFSHRSNL	2.57
RTHTGEKPYKCTLCQENFSHRSNL	2.15
RTHTGEKPYKCTLCRENFSHRSNL	1.75
RTHTGEKPYKCTLCSENFSHRSNL	1.62
RTHTGEKPYKCTLCTENFSHRSNL	1.79
RTHTGEKPYKCTLCVENFSHRSNL	1.57
